# Values quoted from earlier work in PMC9783754.
# Target: S100A12 (Homo sapiens) (UniProt P80511)
# Sequence (P80511 2-92): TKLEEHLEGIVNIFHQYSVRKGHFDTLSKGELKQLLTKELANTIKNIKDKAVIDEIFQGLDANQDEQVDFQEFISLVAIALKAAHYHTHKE
# Chain of S100A12 (P80511 2-92): as above
substance,measurement,value
S100A12 (from UniProt P80511),Kd,160 µM
